For 3 proteins, Km results are on record in patent US5990094A, “Inhibitors of sorotonin N-acetyltransferase” (The Rockefeller University, priority 1998, dated 1999).

Experiment in all cases: purified protein, by the assay type
Substrate in data set [1]: NCCc1c[nH]c2ccc(O)cc12
Substrate in data set [2]: NCCc1c[nH]c2ccccc12
Substrate in data set [3]: CC(=O)SCCNC(=O)CCNC(=O)[C@H](O)C(C)(C)COP(=O)(O)OP(=O)(O)OC[C@H]1O[C@@H](n2cnc3c(N)ncnc32)[C@H](O)[C@@H]1OP(=O)(O)O
Substrate in data set [4]: CC(N)Cc1c[nH]c2ccccc12
The note with it: other: Table 1, tryptamine analogs.

Substrate in data set [5]: CNCCc1c[nH]c2ccccc12
The note with it: other: Table 1, tryptamine analogs.

Setting [6] is: other: 1 mM (near saturating) concentration of the fixed substrate, GST-AANAT.
Setting [7] is: other: ionic strength I~0.1, GST-AANAT.
The mark [8] stands for this setting: other: Table 1, tryptamine analogs.

B1: GST-AANAT fusion (Ovis aries) (protein)
chain: MSTPSVHCLKPSPLHLPSGIPGSPGRQRRHTLPANEFRCLTPEDAAGVFEIEREAFISVSGNCPLNLDEVQHFLTLCPELSLGWFVEGRLVAFIIGSLWDEERLTQESLALHRPRGHSAHLHALAVHRSFRQQGKGSVLLWRYLHHVGAQPAVRRAVLMCEDALVPFYQRFGFHPAGPCAIVVGSLTFTEMHCSLRGHAALRRNSDR
Usually Km stands for the substrate concentration at which the rate is half of its maximum. As to B1, the Km came to 241 µM in data set [1] (setting [6]), 100 µM in data set [2] (setting [7]), 289 µM in data set [3] (setting [6]) and 100 µM in data set [3] (setting [7]).

B2: unmodified AANAT (Ovis aries) (protein)
chain: B1 chain
B2: the Km in data set [3] (other: 1 mM (near saturating) concentration of the fixed substrate, AANAT) was found to be 178 µM.

B3: AANAT (Ovis aries) (protein)
chain: B1 chain
In the case of B3, the Km in data set [1] (setting [8]) came out at 240 µM; in data set [2] (setting [8]), 170 µM; in data set [4], 2700 µM; in data set [5] it was 3800 µM.
